Substitutions are numbered along the chain they refer to. Names and notes keep the numbering of the source.
B1: D137A (protein, UniProt P20701 26-1170, looked up, variant D137A)
Integrin alpha-L: YNLDVRGARSFSPPRAGRHFGYRVLQVGNGVIVGAPGEGNSTGSLYQCQSGTGHCLPVTLRGSNYTSKYLGMTLATDPTDGSILACDPGLSRTCDQNTYLSGLCYLFRQNLQGPMLQGRPGFQECIKGNVDLVFLFAGSMSLQPDEFQKILDFMKDVMKKLSNTSYQFAAVQFSTSYKTEFDFSDYVKRKDPDALLKHVKHMLLLTNTFGAINYVATEVFREELGARPDATKVLIIITDGEATDSGNIDAAKDIIRYIIGIGKHFQTKESQETLHKFASKPASEFVKILDTFEKLKDLFTELQKKIYVIEGTSKQDLTSFNMELSSSGISADLSRGHAVVGAVGAKDWAGGFLDLKADLQDDTFIGNEPLTPEVRAGYLGYTVTWLPSRQKTSLLASGAPRYQHMGRVLLFQEPQGGGHWSQVQTIHGTQIGSYFGGELCGVDVDQDGETELLLIGAPLFYGEQRGGRVFIYQRRQLGFEEVSELQGDPGYPLGRFGEAITALTDINGDGLVDVAVGAPLEEQGAVYIFNGRHGGLSPQPSQRIEGTQVLSGIQWFGRSIHGVKDLEGDGLADVAVGAESQMIVLSSRPVVDMVTLMSFSPAEIPVHEVECSYSTSNKMKEGVNITICFQIKSLIPQFQGRLVANLTYTLQLDGHRTRRRGLFPGGRHELRRNIAVTTSMSCTDFSFHFPVCVQDLISPINVSLNFSLWEEEGTPRDQRAQGKDIPPILRPSLHSETWEIPFEKNCGEDKKCEANLRVSFSPARSRALRLTAFASLSVELSLSNLEEDAYWVQLDLHFPPGLSFRKVEMLKPHSQIPVSCEELPEESRLLSRALSCNVSSPIFKAGHSVALQMMFNTLVNSSWGDSVELHANVTCNNEDSDLLEDNSATTIIPILYPINILIQDQEDSTLYVSFTPKGPKIHQVKHMYQVRIQPSIHDHNIPTLEAVVGVPQPPSEGPITHQWSVQMEPPVPCHYEDLERLPDAAEPCLPGALFRCPVVFRQEILVQVIGTLELVGEIEASSMFSLCSSLSISFNSSKHFHLYGSNASLAQVVMKVDVVYEKQMLYLYVLSGIGGLLLLLLIFIVLYKVGFFKRNLKEKMEAGRGVPNGIPAEDSEQLASGQEAGDPGCLKPLHEKDSESGGGKD
B2: H/M53: human Ile-126 and Asn-129 replaced with murine residues Met and Lys, respectively (protein, UniProt P20701 26-1170, looked up, variant I126M N129K)
Integrin alpha-L: B1 Integrin alpha-L with I126M, N129K, A137D

What was measured:
ICAM-1 [1] = conditions: cited from earlier work
ICAM-1 [2] = assay: Adhesion of 293 cells transfected with CD11a I domain mutants/CD18 to ICAM-1Fc; assay type: cell-based, human; conditions: wide range of concentrations of ICAM-1, data not shown

| Molecule | binding to ICAM-1 (ICAM-1 [1]) | adhesion to ICAM-1, wide range of ICAM-1 concentrations (ICAM-1 [2]) |
| --- | --- | --- |
| B1 | critical to ICAM-1 binding | – |
| B2 | – | identical binding as that of wild-type CD11a |

Source: publication PMC2192333 (The Journal of Experimental Medicine, 1996)
